Laboratory results published in the Human Domainome abundance scans (Beltran et al. 2025).

B1: Myocardin, residues 363 to 406; numbered along this chain, Q8IZQ8 (parent)
chain: KPGPLPPNLDDLKVSELRQQLRIRGLPVSGTKTALMDRLRPFQD

Variants of: B1
Assay: abundance fitness (aPCA) (normalised: wild type 0, dead -1); higher = more abundant; growth selection in yeast, the domain comes from the species named
Conditions: Homo sapiens

Abundance fitness of substitutions, site by site:
D44: G 0 | C -0.297 | S -0.313 | Q -0.206 | Y -0.379 | R -0.03 | N -0.236 | F -0.325 | A -0.086 | E -0.031 | W -0.218 | L -0.494 | K 0.195
F42: R -0.12 | W -0.124 | S 0.03 | G -0.278 | A 0.067 | H 0.139 | M -0.242 | Y -0.102 | C -0.138 | Q -0.06 | E -0.148 | D -0.061 | K -0.09 | N -0.736 | L 0.111 | V -0.211 | P -0.02
M36: C -0.454 | I -0.125 | K -0.083 | W -0.935 | E -0.463 | V -0.183 | D -0.505 | T -0.27 | A -0.255 | G -0.668 | L -0.449 | R -0.216 | S -0.64 | Q -0.398 | P -0.419
P41: S 0.064 | V -0.11 | C -0.151 | F -0.27 | I -0.001 | M -0.231 | R -0.256 | L -0.132 | A 0.037 | Y -0.455 | H -0.14 | E 0.087 | D -0.325 | W -0.161 | G -0.084 | T -0.351 | K -0.305
R40: K 0.194 | D -0.614 | V -0.376 | S -0.107 | C -0.499 | I -0.205 | T -0.12 | W -0.731 | M -0.25 | G -0.294 | L -0.284 | A 0.092 | N -0.698 | Q -0.042 | P -0.346 | E -0.152
R38: E -0.451 | N -0.765 | T -0.316 | H -1.2 | A -0.592 | S -0.479 | M -0.445 | W -1.02 | K -0.39 | C -0.929 | G -0.469 | L -0.671 | D -0.795 | P -0.219 | Y -0.519 | V -0.735 | F -0.907
L39: S -0.601 | V -0.594 | T -0.625 | E -0.562 | G -0.528 | Y -0.505 | D -0.283 | C -0.785 | Q -0.465 | K -0.595 | W -0.77 | R -0.776 | P -0.373 | F -0.755 | H -0.611 | I -0.474 | M -0.409 | A -0.641
Q43: W -0.106 | C -0.005 | P -0.625 | K -0.503 | G -0.152 | S -0.061 | H -0.376 | R -0.232 | T 0.1 | A -0.042 | M -0.031 | N -0.213 | F 0.028 | I -0.109
D37: Q -0.165 | F -1.21 | M -0.264 | I -0.594 | V -0.632 | Y -0.271 | A -0.265 | W -0.829 | S -0.892 | L -0.51 | K -0.245 | N 0.227 | E 0.246 | P -0.966 | G -0.404 | T -0.452 | C -0.39 | H -0.385
L35: W -0.561 | T -0.551 | S -0.418 | G -0.489 | R -0.799 | I 0.092 | Q -0.226 | N -0.613 | K -0.469 | C -0.184 | H -0.943 | D -0.459 | M 0.064 | E -0.293 | P -0.578 | V -0.459
A34: R -0.642 | Q -0.601 | S -0.223 | W -1.14 | T -0.076 | V 0.026
